In PMC4259812 (The Journal of Cell Biology, 2014):

Biological target: T1, human raver1 RRM1-3 domains (residues 39-321) (human, UniProt Q8IY67 39-321)
T1 sequence: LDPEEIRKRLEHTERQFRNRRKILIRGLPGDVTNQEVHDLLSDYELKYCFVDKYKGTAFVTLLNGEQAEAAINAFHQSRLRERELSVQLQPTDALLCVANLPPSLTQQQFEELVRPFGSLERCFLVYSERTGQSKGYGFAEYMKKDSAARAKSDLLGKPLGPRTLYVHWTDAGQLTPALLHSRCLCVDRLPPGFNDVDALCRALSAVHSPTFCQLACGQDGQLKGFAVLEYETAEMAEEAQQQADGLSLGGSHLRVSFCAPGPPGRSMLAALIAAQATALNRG
Experiment: SEC

B1: human vinculin tail domain (Vt), wild type, residues 891-1,066 (domain or fragment)
chain: GEVINQPMMMAARQLHDEARKWSSKGNDIIAAAKRMALLMAEMSRLVRGGSGTKRALIQCAKDIAKASDEVTRLAKEVAKQCTDKRIRTNLLQVCERIPTISTQLKILSTVKATMLGRTNISDEESEQATEMLVHNAQNLMQSVKETVREAEAASIKIRTDAGFTLRWVRKTPWYQ
binding result: binds
